Experiment [1] has as its target T1, biotinylated PD1-ECD-AviHis (human, UniProt Q15116 25-170, biotinylated (Avi tag)).
T1 construct: extracellular domain; also called huPD1; hu PD1; not shown: Avi and His tags
Put plainly: ELISA on biotinylated PD1-ECD-AviHis. On the technique in general: An ELISA detects its analyte on a solid surface through an enzyme-linked reagent.

For experiment [2], the target named is T1, biotinylated PD1-ECD-AviHis. Nature of the experiment: ELISA, biotinylated PD1-ECD-AviHis on streptavidin plates.
Description: After washing (3×90 μl/well with PBST-buffer) 25 μl anti PD1 antibody samples were added in increasing concentrations and incubated 1h at RT. After washing (3×90 μl/well with PBST-buffer) 25 μl/well goat-anti-human H+L-POD (JIR, JIR109-036-098) was added in 1:5000 dilution and incubated at RT for 1 h on a shaker.
Experiment [3] has as its target T2, biotinylated Tim3-ECD-AviHis (human, UniProt Q8TDQ0 22-202, biotinylated (Avi tag)).
T2 construct: extracellular domain; also called huTIM3; hu Tim3; not shown: Avi and His tags
Put plainly: ELISA, biotinylated Tim3-ECD-AviHis on streptavidin plates.

The target in another experiment is T3, human PD1-ECD (human, UniProt Q15116 25-170).
T3 construct: extracellular domain; Analyte of the Biacore assay; also called hu PD1-ECD
Put plainly: SPR (Biacore T200), antibody captured via anti-human Fc IgG, human PD1-ECD in solution, 1:1 Langmuir. (In SPR one partner is held on a chip, and binding of the other changes the refractive index at the surface.)

The target of experiment [4] is T4, human Tim3-ECD (human, UniProt Q8TDQ0 22-202).
T4 construct: extracellular domain; Analyte of the Biacore assay; also called hu Tim3-ECD
Put plainly: SPR (Biacore T200), antibody captured via anti-human Fab IgG, human Tim3-ECD in solution, 1:1 Langmuir.
Description: (§1) The sample and running buffer was HBS-EP+ (0.01 M HEPES, 0.15 M NaCl, 3 mM EDTA, 0.05% v/v Surfactant P20, pH 7.4). Flow cell temperature was set to 25° C. and sample compartment temperature to 12° C. The system was primed with running buffer.
(§2) Different samples were injected for 30 seconds with a concentration of 10 nM and bound consecutively to the flow cells 2, 3 and 4. […] Finally the double referenced data was fitted to a 1:1 langmuir interaction model with the Biacore™ T200 Evaluation Software.

The target of experiment [5] is T4, human Tim3-ECD. Put plainly: SPR (Biacore T200), antibody captured via anti-human Fab IgG, human Tim3-ECD in solution, 1:1 Langmuir; 2 + 2 bispecific format, Tim3-arm.
Description: as §1, §2
For experiment [6], the target named is T2, biotinylated Tim3-ECD-AviHis. Put plainly: ELISA on biotinylated Tim3-ECD-AviHis.
The target in another experiment is T5, human FAP (human, UniProt Q12884 26-760).
T5 construct: also called hFAP
T5 sequence (Q12884 26-760 limits assumed): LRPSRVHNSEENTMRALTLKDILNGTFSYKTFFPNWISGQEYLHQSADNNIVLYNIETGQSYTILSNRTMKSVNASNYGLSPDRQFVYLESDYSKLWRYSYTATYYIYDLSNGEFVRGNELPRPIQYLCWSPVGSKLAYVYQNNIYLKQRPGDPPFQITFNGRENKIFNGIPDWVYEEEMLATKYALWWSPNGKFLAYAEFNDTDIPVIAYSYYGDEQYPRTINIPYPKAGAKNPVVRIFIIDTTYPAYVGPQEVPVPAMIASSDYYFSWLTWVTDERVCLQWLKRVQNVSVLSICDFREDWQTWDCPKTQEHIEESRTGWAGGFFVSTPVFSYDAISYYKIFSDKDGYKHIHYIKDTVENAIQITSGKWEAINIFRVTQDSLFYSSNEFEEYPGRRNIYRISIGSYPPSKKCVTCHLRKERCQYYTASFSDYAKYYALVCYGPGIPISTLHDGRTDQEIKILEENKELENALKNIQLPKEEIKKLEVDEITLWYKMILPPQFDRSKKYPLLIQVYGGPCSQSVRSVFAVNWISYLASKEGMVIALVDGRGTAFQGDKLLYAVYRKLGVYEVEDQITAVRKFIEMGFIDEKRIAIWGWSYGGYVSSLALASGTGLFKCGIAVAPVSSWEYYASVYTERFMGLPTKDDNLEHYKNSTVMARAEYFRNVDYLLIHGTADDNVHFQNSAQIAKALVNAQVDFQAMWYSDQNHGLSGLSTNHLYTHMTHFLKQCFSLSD
Nature of the experiment: SPR (Biacore), antibody captured via anti-human IgG Fc, 5 ug/ml human FAP injected alone for 180 s.

The record followed here is US20260049160A1 (Hoffmann-La Roche, published 2026).

Excerpt for human FAP: Therefore a <Fc> capturing IgG is immobilized on the chip surface and the different DR5TAA CrossMAbs is captured. In the experiment the targets DR5 and FAP were either added individually or simultaneously to the captured CrossMAb.
Description for human PD1-ECD: Different samples were injected for 15 seconds with a concentration of 10 nM and consecutively bound to the flow cells 2, 3 and 4. […] Finally the double referenced data was fitted to a 1:1 langmuir interaction model with the Biacore™ T200 Evaluation Software.

B1: Chimeric TIM3-0028 (antibody, V domains shown)
VH: EVQLQQSVAELVRPGASVKLSCTASGFNIKTTYMHWVKQRPEQGLEWIGRIDPADDNTKYAPKFQGKATITADTSSNTAYLQLSSLTSEDAAIYYCVRDFGYVAWFAYWGQGTLVTFSA
VL: NIVMTPTPKFLPVSSGDRVTMTCRASQSVDNYVAWYQQKPGQSPKLLIYYASNRYIGVPDRFTGSGSGTDFTFTISSVQVEDLAVYFCQQHYSSPYTFGSGTKLEIK
notes: Bivalent IgG; also called TIM3 IgG (bivalent); copies: 2 + 2
For the molecule B1, the binding result in experiment [1] was “no binding”.

B2: 2 + 2 PD1TIM3_0359: chimeric PD1-0103/Tim3-0018 (bispecific antibody, human IgG1, kappa, L234A L235A)
heavy: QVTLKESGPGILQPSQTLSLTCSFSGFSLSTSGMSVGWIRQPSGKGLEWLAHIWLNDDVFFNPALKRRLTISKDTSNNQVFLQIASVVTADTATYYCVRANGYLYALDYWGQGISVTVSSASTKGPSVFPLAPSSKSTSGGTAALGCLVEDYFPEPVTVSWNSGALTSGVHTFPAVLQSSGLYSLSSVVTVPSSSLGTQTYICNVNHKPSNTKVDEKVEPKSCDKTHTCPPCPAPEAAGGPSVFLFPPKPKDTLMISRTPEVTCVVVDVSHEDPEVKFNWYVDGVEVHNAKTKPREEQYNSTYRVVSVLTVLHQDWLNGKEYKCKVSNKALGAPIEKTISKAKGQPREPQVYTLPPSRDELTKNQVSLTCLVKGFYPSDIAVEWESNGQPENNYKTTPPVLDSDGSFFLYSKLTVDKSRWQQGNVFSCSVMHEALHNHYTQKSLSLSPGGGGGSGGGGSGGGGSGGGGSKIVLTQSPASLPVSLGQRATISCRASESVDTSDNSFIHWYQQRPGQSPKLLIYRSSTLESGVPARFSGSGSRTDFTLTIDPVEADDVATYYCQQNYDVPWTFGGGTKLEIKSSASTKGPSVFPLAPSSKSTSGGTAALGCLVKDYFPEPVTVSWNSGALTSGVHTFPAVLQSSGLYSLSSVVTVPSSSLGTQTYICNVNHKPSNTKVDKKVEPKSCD
light 1: QIVLTQSPAIMSASPGQKVTITCSASSSVNYTQWYQQKLGSSPKLWIYDAFKLAPGVPARFSGSGTGTSYSLTISSMEAEDAASYFCHQWSSYPWTFGGGTKLEIKRTVAAPSVFIFPPSDRKLKSGTASVVCLLNNFYPREAKVQWKVDNALQSGNSQESVTEQDSKDSTYSLSSTLTLSKADYEKHKVYACEVTHQGLSSPVTKSFNRGEC
light 2: EVILVESGGGLVKPGGSLKLSCAASGFSFSSYTMSWVRQTPEKRLDWVATISGGGRDIYYPDSVKGRFTISRDNAKNTLYLEMSSLMSEDTALYYCVLLTGRVYFALDSWGQGTSVTVSSASVAAPSVFIFPPSDEQLKSGTASVVCLLNNFYPREAKVQWKVDNALQSGNSQESVTEQDSKDSTYSLSSTLTLSKADYEKHKVYACEVTHQGLSSPVTKSFNRGEC
notes: Tetravalent 2+2 CrossMAb VH-VL with charged substitutions in the CH1/CL interfaces; also called PD1TIM3-0359 (2 + 2)
By EC50 is commonly meant the concentration giving half of the maximal effect. The term Kd denotes a measure of binding affinity in units of concentration. B2: the values for the EC50 in experiment [2] and in experiment [3] were 0.09 nM and 0.11 nM, respectively. The results for the equilibrium dissociation constant (Kd) with human PD1-ECD and with human Tim3-ECD [4] were 1.9 nM and 0.3 nM, respectively.

B3: 2 + 2 PD1TIM3_0358: chimeric PD1-0103/Tim3-0028 (bispecific antibody, human IgG1, kappa, L234A L235A)
heavy: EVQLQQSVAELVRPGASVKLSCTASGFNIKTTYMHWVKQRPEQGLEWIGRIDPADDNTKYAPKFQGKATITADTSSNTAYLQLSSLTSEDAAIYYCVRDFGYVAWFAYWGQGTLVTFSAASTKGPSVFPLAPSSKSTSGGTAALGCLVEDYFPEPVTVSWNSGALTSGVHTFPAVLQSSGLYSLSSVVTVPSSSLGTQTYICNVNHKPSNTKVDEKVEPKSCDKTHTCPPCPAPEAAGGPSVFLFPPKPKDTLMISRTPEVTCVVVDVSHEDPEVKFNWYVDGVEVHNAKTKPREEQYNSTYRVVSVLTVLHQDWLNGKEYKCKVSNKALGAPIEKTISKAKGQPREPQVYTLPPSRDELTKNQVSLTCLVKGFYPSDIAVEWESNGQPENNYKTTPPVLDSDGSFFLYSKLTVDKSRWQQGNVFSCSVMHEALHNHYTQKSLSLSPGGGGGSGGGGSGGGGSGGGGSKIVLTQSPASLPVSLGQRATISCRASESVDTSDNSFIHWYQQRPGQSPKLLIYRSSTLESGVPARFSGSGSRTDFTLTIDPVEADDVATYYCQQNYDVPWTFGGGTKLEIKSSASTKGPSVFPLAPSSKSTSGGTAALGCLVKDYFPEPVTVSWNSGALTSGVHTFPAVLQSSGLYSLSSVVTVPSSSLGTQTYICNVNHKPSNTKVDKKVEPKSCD
light 1: NIVMTPTPKFLPVSSGDRVTMTCRASQSVDNYVAWYQQKPGQSPKLLIYYASNRYIGVPDRFTGSGSGTDFTFTISSVQVEDLAVYFCQQHYSSPYTFGSGTKLEIKRTVAAPSVFIFPPSDRKLKSGTASVVCLLNNFYPREAKVQWKVDNALQSGNSQESVTEQDSKDSTYSLSSTLTLSKADYEKHKVYACEVTHQG
light 2: EVILVESGGGLVKPGGSLKLSCAASGFSFSSYTMSWVRQTPEKRLDWVATISGGGRDIYYPDSVKGRFTISRDNAKNTLYLEMSSLMSEDTALYYCVLLTGRVYFALDSWGQGTSVTVSSASVAAPSVFIFPPSDEQLKSGTASVVCLLNNFYPREAKVQWKVDNALQSGNSQESVTEQDSKDSTYSLSSTLTLSKADYEKHKVYACEVTHQGLSSPVTKSFNRGEC
notes: Tetravalent 2+2 CrossMAb VH-VL with charged substitutions in the CH1/CL interfaces; also called PD1TIM3-0358 (2 + 2)
Take B3: the EC50 was 0.08 nM in experiment [2] and 0.19 nM in experiment [3]. Moreover, the Kd with human Tim3-ECD [5] is 2.2 nM.

B4: Chimeric PD1-0103 (antibody, V domains shown)
VH: EVILVESGGGLVKPGGSLKLSCAASGFSFSSYTMSWVRQTPEKRLDWVATISGGGRDIYYPDSVKGRFTISRDNAKNTLYLEMSSLMSEDTALYYCVLLTGRVYFALDSWGQGTSVTVSS
VL: KIVLTQSPASLPVSLGQRATISCRASESVDTSDNSFIHWYQQRPGQSPKLLIYRSSTLESGVPARFSGSGSRTDFTLTIDPVEADDVATYYCQQNYDVPWTFGGGTKLEIK
notes: Bivalent IgG; also called PD1 IgG (bivalent); copies: 2 + 2
As to B4, the binding result in experiment [6] was “no binding”. The molecule also gave an EC50 in experiment [2] of 0.12 nM.

B5: Chimeric TIM3-0018 (antibody, V domains shown)
VH: QVTLKESGPGILQPSQTLSLTCSFSGFSLSTSGMSVGWIRQPSGKGLEWLAHIWLNDDVFFNPALKRRLTISKDTSNNQVFLQIASVVTADTATYYCVRANGYLYALDYWGQGISVTVSS
VL: QIVLTQSPAIMSASPGQKVTITCSASSSVNYTQWYQQKLGSSPKLWIYDAFKLAPGVPARFSGSGTGTSYSLTISSMEAEDAASYFCHQWSSYPWTFGGGTKLEIK
notes: as for B1
As for B5, the binding result in experiment [1] is reported as “no binding”. Further, the EC50 in experiment [3] was 0.15 nM.

B6: DR5TAA-0077 (bispecific antibody, human IgG1, kappa)
light 1: not shown
heavy: not shown
light 2: EIVLTQSPGTLSLSPGERATLSCRASQSVSRSYLAWYQQKPGQAPRLLIIGASTRATGIPDRFSGSGSGTDFTLTISRLEPEDFAVYYCQQGQVIPPTFGQGTKVEIKRTVAAPSVFIFPPSDEQLKSGTASVVCLLNNFYPREAKVQWKVDNALQSGNSQESVTEQDSKDSTYSLSSTLTLSKADYEKHKVYACEVTHQGLSSPVTKSFNRGEC
notes: Tetravalent 2+2: DR5 core antibody (VH/VL crossover on DR5) with two FAP Fabs fused to the HC C-termini; wild type CH1/CL interface; also called DR5TAA-0077 (control)
For the molecule B6, the “FAP signal [RU max]” value with human FAP is 41.9 RU.

B7: DR5TAA-0083 (bispecific antibody, human IgG1, kappa, L234A L235A)
light 1: not shown
heavy: not shown
light 2: EIVLTQSPGTLSLSPGERATLSCRASQSVSRSYLAWYQQKPGQAPRLLIIGASTRATGIPDRFSGSGSGTDFTLTISRLEPEDFAVYYCQQGQVIPPTFGQGTKVEIKRTVAAPSVFIFPPSDRKLKSGTASVVCLLNNFYPREAKVQWKVDNALQSGNSQESVTEQDSKDSTYSLSSTLTLSKADYEKHKVYACEVTHQGLSSPVTKSFNRGEC
notes: Tetravalent 2+2, VH/VL crossover on DR5
Consider B7, for which, in the experiment with human FAP, the “FAP signal [RU max]” value worked out at 18.5 RU.

B8: DR5TAA-0082 (bispecific antibody, human IgG1, kappa, L234A L235A)
light 1: EIVLTQSPGTLSLSPGERATLSCRASQSVSSSYLAWYQQKPGQAPRLLIYGASSRATGIPDRFSGSGSGTDFTLTISRLEPEDFAVYYCQQGTTHPITFGQGTKVEIKRTVAAPSVFIFPPSDRKLKSGTASVVCLLNNFYPREAKVQWKVDNALQSGNSQESVTEQDSKDSTYSLSSTLTLSKADYEKHKVYACEVTHQGLSSPVTKSFNRGEC
heavy: not shown
light 2: EVQLLESGGGLVQPGGSLRLSCAASGFTFSSHAMSWVRQAPGKGLEWVSAIWASGEQYYADSVKGRFTISRDNSKNTLYLQMNSLRAEDTAVYYCAKGWLGNFDYWGQGTLVTVSSASVAAPSVFIFPPSDEELKSGTASVVCLLNNFYPREAKVQWKVDNALQSGNSQESVTEQDSKDSTYSLSSTLTLSKADYEKHKVYACEVTHQGLSSPVTKSFNRGEC
notes: Tetravalent 2+2, VH/VL crossover on FAP
For B8, the “FAP signal [RU max]” value with human FAP amounted to 7.4 RU.

B9: DR5TAA-0078 (bispecific antibody)
light 1: EIVLTQSPGTLSLSPGERATLSCRASQSVSSSYLAWYQQKPGQAPRLLIYGASSRATGIPDRFSGSGSGTDFTLTISRLEPEDFAVYYCQQGTTHPITFGQGTKVEIKSSASTKGPSVFPLAPSSKSTSGGTAALGCLVKDYFPEPVTVSWNSGALTSGVHTFPAVLQSSGLYSLSSVVTVPSSSLGTQTYICNVNHKPSNTKVDKKVEPKSCD
heavy: not shown
light 2: EIVLTQSPGTLSLSPGERATLSCRASQSVSRSYLAWYQQKPGQAPRLLIIGASTRATGIPDRFSGSGSGTDFTLTISRLEPEDFAVYYCQQGQVIPPTFGQGTKVEIKRTVAAPSVFIFPPSDEQLKSGTASVVCLLNNFYPREAKVQWKVDNALQSGNSQESVTEQDSKDSTYSLSSTLTLSKADYEKHKVYACEVTHQGLSSPVTKSFNRGEC
notes: Tetravalent 2+2: DR5 core antibody with CH1-CL crossover on DR5 (instead of VH/VL), two FAP Fabs fused to the HC C-termini; wild type CH1/CL interface; also called DR5TAA-0078 (control)
As for B9, the “FAP signal [RU max]” value with human FAP stood at 38.4 RU.

B10: DR5TAA-0081 (bispecific antibody, human IgG1, kappa, L234A L235A)
light 1: EVQLLESGGGLVQPGGSLRLSCAASGFTFSSHAMSWVRQAPGKGLEWVSAIWASGEQYYADSVKGRFTISRDNSKNTLYLQMNSLRAEDTAVYYCAKGWLGNFDYWGQGTLVTVSSASVAAPSVFIFPPSDEQLKSGTASVVCLLNNFYPREAKVQWKVDNALQSGNSQESVTEQDSKDSTYSLSSTLTLSKADYEKHKVYACEVTHQGLSSPVTKSFNRGEC
heavy: not shown
light 2: EIVLTQSPGTLSLSPGERATLSCRASQSVSSSYLAWYQQKPGQAPRLLIYGASSRATGIPDRFSGSGSGTDFTLTISRLEPEDFAVYYCQQGTTHPITFGQGTKVEIKRTVAAPSVFIFPPSDEQLKSGTASVVCLLNNFYPREAKVQWKVDNALQSGNSQESVTEQDSKDSTYSLSSTLTLSKADYEKHKVYACEVTHQGLSSPVTKSFNRGEC
notes: Tetravalent 2+2: DR5 core antibody with two VH/VL-crossed FAP Fabs fused to the HC C-termini; wild type CH1/CL interface; the set of three chains is the same; also called DR5TAA-0081 (control)
In the case of B10, the “FAP signal [RU max]” value in the experiment with human FAP is 7.2 RU.
